Test results reported in the supplement of paper PMC12783771.
± gives the standard deviation of the averaged measurements.

B1: library; a variant is named by its letters at X, in order (parent)
chain: MNIQIGELAKRTACPVVTIRFYEQEGLLPPPGRSRGNFRLYGEEHVERLQFIRHCRSLDMPLSDVRTLLSYRKRPDQDCGEVXMLLDEHIRQVESRIGALLELKHHLVELREACSGARPAQSCGILQXLSXCVCXTRGTTAHXSD

How the values were obtained:
[1] = variants of: B1; test: sfGFP reporter fluorescence (15 h) (µM FITC); higher = higher leak; conditions: library round: Round 2; ligand: none
Procedure: (§1)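 Cell-free biosensing: 1 µL Echo-assembled CFE reactions with linear PbrR variant templates (5 nM) and pPbrR-sfGFP reporter, with 1 µM Pb, 30 µM Zn or no ligand; endpoint sfGFP fluorescence after 15 h at 30 °C calibrated as µM FITC. Round 2 ML-predicted PbrR mutants; up to 3 biological replicates.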

[2] = variants of: B1; test: sfGFP reporter fluorescence (15 h) (µM FITC); higher = stronger transcriptional activation; conditions: library round: Round 2
Procedure: as §1

Variant | sfGFP reporter fluorescence [1] | sfGFP reporter fluorescence ([2]; ligand: 1 µM Pb) | sfGFP reporter fluorescence ([2]; ligand: 30 µM Zn)
MNIQIGELAKRTACPVVTIRFYEQEGLLPPPGRSRGNFRLYGEEHVERLQFIRHCRSLDLPLSKVRTLLSYRKRPDQDCGEVNMLLDEHIRQVESRIGALLELKHHLVELREACSGARPAQSCGILQGLSACVCDTRGTTAHPSD | 1.59 ± 0.28 | 2.6 ± 0.28 | 3.98 ± 0.16
MNIQIGELAKRTACPVVTIRFYEQEGLLPPPGRSRGNFRLYGEEHVERLQFIRHCRSLDMPLSDVRTLLSYRKRPDQDCGEVMMLLDEHIRQVESRIGALLELKHHLVELREACSGARPAQSCGILQGLSACVCATRGTTAHPSD | 0.0477 ± 0.0018 | 0.0933 ± 0.0042 | 0.0535 ± 0.0035
MNIQIGELAKRTACPVVTIRFYEQEGLLPPPGRSRGNFRLYGEEHVERLQFIRHCRSLDLNLSKVRTLLSYRKRPDQDCGEVNMLLDEHIRQVESRIGALLELKHHLVELREACSGARPAQSCGILQGLSACVCDTRGTTAHPSD | 0.804 ± 0.17 | 1.38 ± 0.2 | 2.82 ± 0.43
MNIQIGELAKRTACPVVTIRFYEQEGLLPPPGRSRGNFRLYGEEHVERLQFIRHCRSLDMPLSDVRTLLSYRKRPDQDCGEVNMLLDEHIRQVESRIGALLELKHHLVELREACSGARPAQSCGILQGLSACVCATRGTTAHSSD | 0.0633 ± 0.001 | 0.107 ± 0.011 | 1.08 ± 0.1
MNIQIGELAKRTACPVVTIRFYEQEGLLPPPGRSRGNFRLYGEEHVERLQFIRHCRSLDMPLSDVRTLLSYRKRPDQDCGEVNMLLDEHIRQVESRIGALLELKHHLVELREACSGARPAQSCGILQGVSACVCDTRGTTAHLSD | 0.0491 ± 0.0012 | 0.0459 ± 0.00051 | 0.0502 ± 0.0022
MNIQIGELAKRTACPVVTIRFYEQEGLLPPPGRSRGNFRLYGEEHVERLQFIRHCRSLDMPLSDVRTLLSYRKRPDQDCGEVTMLLDEHIRQVESRIGALLELKHHLLELREACSGARPAQSCGILQGLSACVCDTRGTTAHPSD | 0.0451 ± 0.00078 | 0.0942 ± 0.0052 | 0.321 ± 0.0054
MNIQIGELAKRTACPVVTIRFYEQEGLLPPPGRSRGNFRLYGEEHVERLQFIRHCRSLDMPLSDVRTLLSYRKRPDQDCGEVNMLLDEHIRQVESRIGALLELKHHCVELREACSGARPAQSCGILQGLSACVCATRGTTAHPSD | 1.86 ± 0.29 | 2.29 ± 0.21 | 3.05 ± 0.55
